Reference: patent US20200199241A1 (Chugai, published 2020)

T1: FcγRIIb (human, UniProt P31994 43-217, limits assumed)
T1 construct: also called FcgRIIb; FcγIIB
T1 sequence: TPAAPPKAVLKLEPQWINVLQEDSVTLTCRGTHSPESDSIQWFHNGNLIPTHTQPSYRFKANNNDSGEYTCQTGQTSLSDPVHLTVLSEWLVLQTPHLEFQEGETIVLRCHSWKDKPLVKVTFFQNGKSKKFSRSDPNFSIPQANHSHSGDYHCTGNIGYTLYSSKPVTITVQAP

T2: FcγRIIa type R (human, UniProt P12318 36-217)
T2 construct: also called FcγRIIaR; FcgRIIaR
T2 chain: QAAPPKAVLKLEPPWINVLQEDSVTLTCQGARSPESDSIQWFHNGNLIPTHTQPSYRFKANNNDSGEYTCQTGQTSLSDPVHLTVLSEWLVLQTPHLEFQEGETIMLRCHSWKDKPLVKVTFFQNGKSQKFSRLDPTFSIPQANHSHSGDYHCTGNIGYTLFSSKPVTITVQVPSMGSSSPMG

T3: FcγRIIa type H (human, UniProt P12318 36-217)
T3 construct: also called FcγRIIaH; FcγRIIH
T3 sequence: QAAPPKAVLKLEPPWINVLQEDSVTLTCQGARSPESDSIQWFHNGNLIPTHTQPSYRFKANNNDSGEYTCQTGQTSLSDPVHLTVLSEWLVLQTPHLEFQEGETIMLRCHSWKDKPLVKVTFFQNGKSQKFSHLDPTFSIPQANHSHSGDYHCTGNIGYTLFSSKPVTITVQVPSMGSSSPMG


Columns and labels:
[1] = molecular target: T1, FcγRIIb; assay: SPR (Biacore), KD of IL6R-B3/IL6R-L divided by KD of the variant
From the text: Furthermore, KD(IIaR)/KD(IIb) and KD(IIaH)/KD(IIb) in the table respectively represent the value obtained by dividing the KD value of each variant for FcγRIIaR by the KD value of each variant for FcγRIIb, and the value obtained by dividing the KD value of each variant for FcγRIIaH by the KD value of each variant for FcγRIIb. KD(IIb) of the parent polypeptide/KD(IIb) of the altered polypeptide refers to the value obtained by dividing the KD value of the parent polypeptide for FcγRIIb by the KD value of each variant for FcγRIIb.

[2] = molecular target: T1, FcγRIIb; assay: SPR (Biacore); KD for FcγRIIaH divided by KD for FcγRIIb of the same antibody
From the text: Furthermore, KD(IIaR)/KD(IIb) and KD(IIaH)/KD(IIb) in the table respectively represent the value obtained by dividing the KD value of each variant for FcγRIIaR by the KD value of each variant for FcγRIIb, and the value obtained by dividing the KD value of each variant for FcγRIIaH by the KD value of each variant for FcγRIIb.

[3] = molecular target: T1, FcγRIIb; assay: SPR (Biacore); KD for FcγRIIaR divided by KD for FcγRIIb of the same antibody
[4] = molecular target: T4, FcγRIa (human, UniProt P12314 16-292, limits assumed); assay: SPR (Biacore), FcγR over captured antibody
T4 construct: also called FcgRIa; CD64
T4 sequence (P12314 16-292 limits assumed): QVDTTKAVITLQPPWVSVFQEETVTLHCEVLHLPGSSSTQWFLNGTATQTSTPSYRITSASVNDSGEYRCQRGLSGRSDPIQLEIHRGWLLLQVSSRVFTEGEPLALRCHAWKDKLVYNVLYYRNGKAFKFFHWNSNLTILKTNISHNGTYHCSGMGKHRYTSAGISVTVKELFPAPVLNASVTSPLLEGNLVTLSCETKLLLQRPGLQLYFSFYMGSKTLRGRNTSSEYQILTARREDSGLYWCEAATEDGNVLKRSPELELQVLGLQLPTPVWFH

[5] = molecular target: T2, FcγRIIa type R; assay: SPR (Biacore), FcγR over captured antibody
[6] = molecular target: T3, FcγRIIa type H; assay: SPR (Biacore), FcγR over captured antibody
[7] = molecular target: T5, FcγRIIIa type V (human, UniProt P08637 17-208, limits assumed); assay: SPR (Biacore), FcγR over captured antibody
T5 construct: also called FcγRIIIaV; FcgRIIIaV
T5 sequence (P08637 other isoform, or with tags, fused parts or gaps limits assumed): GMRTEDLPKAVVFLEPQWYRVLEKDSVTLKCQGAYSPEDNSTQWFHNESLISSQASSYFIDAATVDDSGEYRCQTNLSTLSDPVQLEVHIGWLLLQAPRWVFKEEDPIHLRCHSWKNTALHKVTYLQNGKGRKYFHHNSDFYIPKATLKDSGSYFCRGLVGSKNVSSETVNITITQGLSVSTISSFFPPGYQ

[8] = molecular target: T1, FcγRIIb; assay: SPR (Biacore), FcγR over captured antibody

KD(IIb) of the parent polypeptide/KD(IIb) of altered polypeptide [1] | KD(IIaH)/KD(IIb) [2] | KD(IIaR)/KD(IIb) [3] | Kd [4] | Kd [5] | Kd [6] | Kd [7] | Kd [8] | Binder
2.8 fold | 48.2 | 13.3 | 0.0026 µM | 15 µM | 54 µM | 72 µM | 1.1 µM | IL6R-BP116/IL6R-L (antibody, human IgG1, IgG1; Fc variant of IL6R-B3; copies: 2 + 2) heavy: QVQLQESGPGLVKPSETLSLTCAVSGHSISHDHAWSWVRQPPGEGLEWIGFISYSGITNYNPSLQGRVTISRDNSKNTLYLQMNSLRAEDTAVYYCARSLARTTAMDYWGEGTLVTVSSASTKGPSVFPLAPSSKSTSGGTAALGCLVKDYFPEPVTVSWNSGALTSGVHTFPAVLQSSGLYSLSSVVTVPSSSLGTQTYICNVNHKPSNTKVDKKVEPKSCDKTHTCPPCPAPELLGGDSVFLFPPKPKDTLMISRTPEVTCVVVDVSHEDPEVKFNWYVDGVEVHNAKTKPREEQYNSTYRVVSVLTVLHQDWLNGKEYKCKVSNTALPAPIEKTISKAKGQPREPQVYTLPPSRDELTKNQVSLTCLVKGFYPSDIAVEWESNGQPENNYKTTPPVLDSDGSFFLYSKLTVDKSRWQQGNVFSCSVMHEALHNHYTQESLSLSP light: DIQMTQSPSSLSASVGDRVTITCRASQDISSYLNWYQQKPGKAPKLLIYYTSRLHSGVPSRFSGSGSGTDFTFTISSLQPEDIATYYCQQGNTLPYTFGQGTKVEIK
2.7 fold | 39.5 | 8.7 | 0.007 µM | 9.9 µM | 45 µM | 56 µM | 1.1 µM | IL6R-BP119/IL6R-L (antibody, human IgG1, IgG1; Fc variant of IL6R-B3; copies: 2 + 2) heavy: QVQLQESGPGLVKPSETLSLTCAVSGHSISHDHAWSWVRQPPGEGLEWIGFISYSGITNYNPSLQGRVTISRDNSKNTLYLQMNSLRAEDTAVYYCARSLARTTAMDYWGEGTLVTVSSASTKGPSVFPLAPSSKSTSGGTAALGCLVKDYFPEPVTVSWNSGALTSGVHTFPAVLQSSGLYSLSSVVTVPSSSLGTQTYICNVNHKPSNTKVDKKVEPKSCDKTHTCPPCPAPELLGGDSVFLFPPKPKDTLMISRTPEVTCVVVDVSHEDPEVKFNWYVDGVEVHNAKTKPREEQYNSTYRVVSVLTVLHQDWLNGKEYKCKVSNMALPAPIEKTISKAKGQPREPQVYTLPPSRDELTKNQVSLTCLVKGFYPSDIAVEWESNGQPENNYKTTPPVLDSDGSFFLYSKLTVDKSRWQQGNVFSCSVMHEALHNHYTQESLSLSP light: DIQMTQSPSSLSASVGDRVTITCRASQDISSYLNWYQQKPGKAPKLLIYYTSRLHSGVPSRFSGSGSGTDFTFTISSLQPEDIATYYCQQGNTLPYTFGQGTKVEIK
2.7 fold | 40 | 13.2 | 0.012 µM | 15 µM | 46 µM | 56 µM | 1.2 µM | IL6R-BP118/IL6R-L (antibody, human IgG1, IgG1; Fc variant of IL6R-B3; copies: 2 + 2) heavy: QVQLQESGPGLVKPSETLSLTCAVSGHSISHDHAWSWVRQPPGEGLEWIGFISYSGITNYNPSLQGRVTISRDNSKNTLYLQMNSLRAEDTAVYYCARSLARTTAMDYWGEGTLVTVSSASTKGPSVFPLAPSSKSTSGGTAALGCLVKDYFPEPVTVSWNSGALTSGVHTFPAVLQSSGLYSLSSVVTVPSSSLGTQTYICNVNHKPSNTKVDKKVEPKSCDKTHTCPPCPAPELLGGDSVFLFPPKPKDTLMISRTPEVTCVVVDVSHEDPEVKFNWYVDGVEVHNAKTKPREEQYNSTYRVVSVLTVLHQDWLNGKEYKCKVSNSALPAPIEKTISKAKGQPREPQVYTLPPSRDELTKNQVSLTCLVKGFYPSDIAVEWESNGQPENNYKTTPPVLDSDGSFFLYSKLTVDKSRWQQGNVFSCSVMHEALHNHYTQESLSLSP light: DIQMTQSPSSLSASVGDRVTITCRASQDISSYLNWYQQKPGKAPKLLIYYTSRLHSGVPSRFSGSGSGTDFTFTISSLQPEDIATYYCQQGNTLPYTFGQGTKVEIK
